In experiment [1] the target is LS-Spy-rTT-FP8v1/PEG2 nanoparticle carrier (HIV-1). Kind of experiment: isothermal titration calorimetry (ITC), Fab against conjugate. Background: ITC needs no label: the signal is the heat of the interaction.
In experiment [2] the target is FP-rTT monomer (HIV-1 Env fusion peptides conjugated to monomeric rTT) (HIV-1). The description is as above.

Drawing on patent US20210353740A1, this text covers competent Fab binding sites per entity (ITC stoichiometry) (binding sites per nanoparticle carrier) and competent Fab binding sites per entity (ITC stoichiometry) (binding sites per FP-rTT monomer) for 1 substance.

Where “and” joins values, the source holds several entries; their conditions need not be identical. Equal entries are not always repeated.

Take VRC34.01 Fab: the competent Fab binding sites per entity (ITC stoichiometry) (binding sites per nanoparticle carrier) in experiment [1] was 152 and 402. In experiment [2], this substance gave a competent Fab binding sites per entity (ITC stoichiometry) (binding sites per FP-rTT monomer) of 6.
